Assay results from publication PMC10644352, “Bromodomain Factor 5 as a Target for Antileishmanial Drug Discovery” (ACS Infectious Diseases, 2023).
No end group written: not given here.

Assays:
[1] = target: T1, Leishmania donovani bromodomain factor 5 (LdBDF5) first bromodomain, recombinant BD5.1 (Leishmania donovani); experiment: fluorescence polarisation; 800 nM 5-FAM peptide, protein 0-300 μM; 20 mM HEPES, 500 mM NaCl, 1 mg/mL BSA, pH 7.5; 30 min at room temperature; one-site-specific binding fit (two-site for BD5T); n = 3; conditions: both partners purified
T1 construct: L. donovani BDF5 (LDBPK_091320), construct with the first bromodomain; Plasmid from the Structural Genomics Consortium, pET-15-MHL backbone (Addgene plasmid #26092), which encodes a cleavable His-tag; His-tags were not cleaved for BD5.1; Expected mass 15.2 kDa; Monomer by SEC-MALLS; also called LdBDF5 BD5.1; LdBDF5.1; source: E. coli Rosetta2 (DE3) pLysS, purified (IMAC, SEC)

[2] = target: T2, Leishmania donovani bromodomain factor 5 (LdBDF5) second bromodomain, recombinant BD5.2 (Leishmania donovani); experiment: as above; conditions: both partners purified
T2 construct: L. donovani BDF5 (LDBPK_091320), construct with the second bromodomain; His-tags were not cleaved for BD5.2; Expected mass 17.9 kDa; Monomer by SEC-MALLS; also called LdBDF5 BD5.2; source: E. coli Rosetta2 (DE3) pLysS, purified (IMAC, SEC)

## AK(Ac)GK(Ac)RSADAK(Ac)SSQK(Ac)R (also: 5-FAM at N-terminus or via ethylene diamine linker at C-terminus) [5-FAM-labeled H4(1-15)K2Ac K4Ac K10Ac K14Ac peptide of L. donovani histone H4]
[1]
  Kd: 137 µM
[2]
  Kd: 353 µM
